According to US20170313764A1 (ACADEMISCH MEDISCH CENTRUM, published 2017):

Legend:
[1] = target: E1E2 of HCV isolate UKN4.11.1 (genotype 4) (Hepatitis C virus genotype 4); assay: cell-based or functional assay
[2] = target: E1E2 of HCV isolate AMS.4d.20875969 (genotype 4d) (Hepatitis C virus genotype 4d); assay: cell-based or functional assay
[3] = target: E1E2 of HCV isolate H77 (genotype 1a), wild type (Hepatitis C virus genotype 1a, strain …, UniProt P27958 192-383; P27958 384-746); assay: cell-based or functional assay
[4] = target: E1E2 of HCV isolate AMS.3a.21071213 (genotype 3a) (Hepatitis C virus genotype 3a); assay: cell-based or functional assay
[5] = target: E1E2 of HCV isolate H77 with single mutation P676A (Hepatitis C virus genotype 1a, strain …, UniProt P27958 192-383; P27958 384-746); assay: ELISA, GNA-captured E1E2 lysate; EC50 wild type / EC50 mutant
[6] = target: E1E2 of HCV isolate H77 with single mutation D535A (Hepatitis C virus genotype 1a, strain …, UniProt P27958 192-383; P27958 384-746); assay: as above
[7] = target: E1E2 of HCV isolate H77 with single mutation N423A (Hepatitis C virus genotype 1a, strain …, UniProt P27958 192-383; P27958 384-746); assay: as above
[8] = target: E1E2 of HCV isolate H77 with single mutation R657A (Hepatitis C virus genotype 1a, strain …, UniProt P27958 192-383; P27958 384-746); assay: as above
[9] = target: E1E2 of HCV isolate H77 with single mutation N532A (Hepatitis C virus genotype 1a, strain …, UniProt P27958 192-383; P27958 384-746); assay: as above
[10] = target: E1E2 of HCV isolate H77 with single mutation F442A (Hepatitis C virus genotype 1a, strain …, UniProt P27958 192-383; P27958 384-746); assay: as above
[11] = target: E1E2 of HCV isolate H77 with single mutation G436A (Hepatitis C virus genotype 1a, strain …, UniProt P27958 192-383; P27958 384-746); assay: as above
[12] = target: E1E2 of HCV isolate H77 with single mutation T526A (Hepatitis C virus genotype 1a, strain …, UniProt P27958 192-383; P27958 384-746); assay: as above
[13] = target: E1E2 of HCV isolate H77 with single mutation D698A (Hepatitis C virus genotype 1a, strain …, UniProt P27958 192-383; P27958 384-746); assay: as above
[14] = target: E1E2 of HCV isolate H77 with single mutation Y443A (Hepatitis C virus genotype 1a, strain …, UniProt P27958 192-383; P27958 384-746); assay: as above
[15] = target: E1E2 of HCV isolate H77 with single mutation W616A (Hepatitis C virus genotype 1a, strain …, UniProt P27958 192-383; P27958 384-746); assay: as above
[16] = target: E1E2 of HCV isolate H77 with single mutation Y527A (Hepatitis C virus genotype 1a, strain …, UniProt P27958 192-383; P27958 384-746); assay: as above
[17] = target: E1E2 of HCV isolate H77 with single mutation S424A (Hepatitis C virus genotype 1a, strain …, UniProt P27958 192-383; P27958 384-746); assay: as above
[18] = target: E1E2 of HCV isolate H77 with single mutation P664A (Hepatitis C virus genotype 1a, strain …, UniProt P27958 192-383; P27958 384-746); assay: as above
[19] = target: E1E2 of HCV isolate H77 with single mutation L413A (Hepatitis C virus genotype 1a, strain …, UniProt P27958 192-383; P27958 384-746); assay: as above
[20] = target: E1E2 of HCV isolate H77 with single mutation G418A (Hepatitis C virus genotype 1a, strain …, UniProt P27958 192-383; P27958 384-746); assay: as above
[21] = target: E1E2 of HCV isolate H77 with single mutation W420A (Hepatitis C virus genotype 1a, strain …, UniProt P27958 192-383; P27958 384-746); assay: as above

B1: AT15-012 (antibody, V domains shown)
VH: QVQLVQSGAEVKKPGSSVKVSCKASGGNFNIFPITWVRQAPGQGLEWMGEIIPMLGTPEYAQKFQGRVTITADKSTGTAFMELSSLRSEDTAVYYCARTETTLPGTLFFVYYFHFWGQGTPVTVSS
VL: EIVMTQSPVTLSVSPGERAILSCRASQSVSSSLAWYQQKPGQAPRLLIYGASTRATGVPARFSGSGSGTEFTLTISSVQSEDYAIYFCQQYNDRPPWTFGQGTKVEIK
notes: also called AT15-12
- IC50, HCVpp neutralization [1]: 1.66 µg/mL
- IC50, HCVpp neutralization [2]: 1.16 µg/mL
- IC50, HCVpp neutralization [3]: 0.26 µg/mL
- IC50, HCVpp neutralization [4]: 0.9 µg/mL
- relative binding, mutant vs wild type [5]: 92%
- relative binding, mutant vs wild type [6]: 52%
- relative binding, mutant vs wild type [7]: 132%
- relative binding, mutant vs wild type [8]: 138%
- relative binding, mutant vs wild type [9]: 125%
- relative binding, mutant vs wild type [10]: 60%
- relative binding, mutant vs wild type [11]: 91%
- relative binding, mutant vs wild type [12]: 82%
- relative binding, mutant vs wild type [13]: 117%
- relative binding, mutant vs wild type [14]: 103%
- relative binding, mutant vs wild type [15]: 71%
- relative binding, mutant vs wild type [16]: 76%
- relative binding, mutant vs wild type [17]: 67%
- relative binding, mutant vs wild type [18]: 83%

B2: AT12-010 (antibody, V domains shown)
VH: QLQLVQSGAEVKKPGSSVKVSCKASGGTFTSYAINWVRQVPGQGLEWMGEISPVFGTTHYAQKFQGRLKITADESADTAYMELSSLRSDDTAVYYCGRDRAPRLCSGGRCHSPPDHWGQGTLVTVSS
VL: DIQMTQSPSSVSASVGDRVTITCRASQGFGNWLAWYQQKPGRAPKLLIFGASTLQNGVPSRFSGSASGTDFTLTITSLQPEDFATYYCLQTNTFPYTFGQGTKVEIKR
- relative binding, mutant vs wild type [19]: 217%
- relative binding, mutant vs wild type [20]: 203%
- relative binding, mutant vs wild type [21]: < 10%

B3: AT12-007 (antibody, V domains shown)
VH: QVQLEQSGAEVKKPGASVKVSCKVSGYTLTELSMHWVRQAPGKGLEWMGSFDPADGERLYAQKFQGRVIMSEDTSTDTAYMELSSLRSEDAAVYYCATAPRMTMFGVIMALDSWGQGTLVTVSS
VL: DIQMTQSPSTLSASLGDRVTITCRASQNINKYLAWYQQKPGKAPKLLIYKASNLQSGVPSRFSGSGSGTDFILTISSLQPDDFATYYCQQYTTYSAWTFGQGTNVDIKR
- relative binding, mutant vs wild type [19]: 187%
- relative binding, mutant vs wild type [20]: 130%
- relative binding, mutant vs wild type [21]: 87%

B4: AT15-009 (antibody, V domains shown)
VH: QVLLVQSGAEVKKPGSSVKVSCKASGGTFSTYAISWLRQAPGQGPEWMGGIVPMFGITNYAQHFQGRITITADKSTSTAYMELSSLGSEDTAVYFCARDLRSGGTFFSRGFDLWGPGTKVTVSS
VL: EIVLTQSPGTLSLSPGERATLSCRASQSVSSSFLTWYQQKPGQAPRLLIFDASTRATGVPDRFSGSGSGTDFTLTISRLEPEDFGVYYCQQFDSSPTFGGGTKVEIK
- IC50, HCVpp neutralization [1]: 1.33 µg/mL
- IC50, HCVpp neutralization [2]: 2.26 µg/mL
- IC50, HCVpp neutralization [3]: 0.14 µg/mL
- IC50, HCVpp neutralization [4]: 0.71 µg/mL
- relative binding, mutant vs wild type [5]: 102%
- relative binding, mutant vs wild type [6]: 55%
- relative binding, mutant vs wild type [7]: 111%
- relative binding, mutant vs wild type [8]: 123%
- relative binding, mutant vs wild type [9]: 118%
- relative binding, mutant vs wild type [10]: 27%
- relative binding, mutant vs wild type [11]: 93%
- relative binding, mutant vs wild type [12]: 87%
- relative binding, mutant vs wild type [13]: 116%
- relative binding, mutant vs wild type [14]: 64%
- relative binding, mutant vs wild type [15]: 29%
- relative binding, mutant vs wild type [16]: 84%
- relative binding, mutant vs wild type [17]: 106%
- relative binding, mutant vs wild type [18]: 101%
